From patent US10564159

Key:
[1] = target: human TSH receptor (wild type), displayed on CHO-Rluc cells (human) (UniProt P16473); test: cell-based or functional assay
[2] = target: chimeric hTSH/rLH-R receptor (RMc4), displayed on CHO-RMc4luc cells (human TSH receptor with a segment of rat LH receptor); test: cell-based or functional assay

Ratio of Signal/Negative, luciferase reporter, FSH 364 mIU/ml on CHO-Rluc cells [1] | luciferase RLU, FSH 364 mIU/ml on CHO-Rluc cells [1] [RLU] | Ratio of Signal/Negative, luciferase reporter, FSH 364 mIU/ml on CHO-Mc4luc cells [2] | luciferase RLU, FSH 364 mIU/ml on CHO-RMc4luc cells [2] [RLU] | Ratio of Signal/Negative, luciferase reporter, LH 455 mIU/ml on CHO-Rluc cells [1] | luciferase RLU, LH 455 mIU/ml on CHO-Rluc cells [1] [RLU] | Ratio of Signal/Negative, luciferase reporter, LH 455 mIU/ml on CHO-Mc4luc cells [2] | luciferase RLU, LH 455 mIU/ml on CHO-RMc4luc cells [2] [RLU] | Substance
0.7 | 728 | 0.6 | 1020 |  |  |  |  | human follicle stimulating hormone (from UniProt P01215 25-116; P01225 19-129) (ligand)
 |  |  |  | 0.8 | 835 | 0.9 | 1560 | human luteinizing hormone (from UniProt P01215 25-116; P01229 21-141) (ligand)
